According to patent US20140072613A1 (published 2014):

T1: Ron(h) (human, UniProt Q04912 983-1400, limits assumed)
T1 sequence (looked up): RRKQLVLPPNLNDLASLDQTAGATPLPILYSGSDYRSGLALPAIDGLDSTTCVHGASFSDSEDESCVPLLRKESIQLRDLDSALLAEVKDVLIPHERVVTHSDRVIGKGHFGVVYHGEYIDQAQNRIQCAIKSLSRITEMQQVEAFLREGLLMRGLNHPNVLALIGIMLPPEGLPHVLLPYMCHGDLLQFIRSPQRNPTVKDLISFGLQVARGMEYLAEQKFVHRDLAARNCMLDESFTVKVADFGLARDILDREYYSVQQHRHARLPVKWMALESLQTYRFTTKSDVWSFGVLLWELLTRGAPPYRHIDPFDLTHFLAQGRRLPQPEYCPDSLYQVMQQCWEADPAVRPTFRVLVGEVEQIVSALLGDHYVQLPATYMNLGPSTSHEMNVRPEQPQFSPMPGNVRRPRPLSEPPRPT

T2: PDK1(h) (human, UniProt O15530 1-556, limits assumed)
T2 sequence (looked up): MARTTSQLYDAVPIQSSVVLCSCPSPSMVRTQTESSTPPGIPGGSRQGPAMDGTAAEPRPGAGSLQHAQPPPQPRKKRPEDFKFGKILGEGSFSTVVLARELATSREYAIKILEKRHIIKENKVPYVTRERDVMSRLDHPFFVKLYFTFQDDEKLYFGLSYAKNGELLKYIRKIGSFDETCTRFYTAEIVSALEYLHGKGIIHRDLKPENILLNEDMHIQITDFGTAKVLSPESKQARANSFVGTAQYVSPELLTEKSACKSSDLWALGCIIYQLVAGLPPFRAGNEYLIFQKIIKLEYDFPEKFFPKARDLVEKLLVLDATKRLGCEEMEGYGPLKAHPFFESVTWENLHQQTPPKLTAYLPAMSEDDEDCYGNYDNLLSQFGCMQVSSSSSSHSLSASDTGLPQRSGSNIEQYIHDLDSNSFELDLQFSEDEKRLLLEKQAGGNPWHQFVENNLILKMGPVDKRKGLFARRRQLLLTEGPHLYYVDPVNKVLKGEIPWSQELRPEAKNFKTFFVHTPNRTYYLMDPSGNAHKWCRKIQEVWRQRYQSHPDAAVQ

T3: ALK4(h) (human, UniProt P36896 150-505, limits assumed)
T3 sequence (looked up): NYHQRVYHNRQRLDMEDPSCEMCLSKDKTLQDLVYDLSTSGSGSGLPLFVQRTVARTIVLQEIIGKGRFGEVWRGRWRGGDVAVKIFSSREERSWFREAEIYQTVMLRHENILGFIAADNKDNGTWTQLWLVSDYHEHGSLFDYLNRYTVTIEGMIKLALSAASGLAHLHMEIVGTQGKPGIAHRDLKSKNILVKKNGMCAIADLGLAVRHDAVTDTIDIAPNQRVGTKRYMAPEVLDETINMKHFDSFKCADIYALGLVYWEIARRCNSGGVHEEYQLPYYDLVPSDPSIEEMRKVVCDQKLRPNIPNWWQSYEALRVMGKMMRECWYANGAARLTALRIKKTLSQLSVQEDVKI

T4: PKCζ(h) (human, UniProt Q05513 1-592)
T4 sequence (looked up): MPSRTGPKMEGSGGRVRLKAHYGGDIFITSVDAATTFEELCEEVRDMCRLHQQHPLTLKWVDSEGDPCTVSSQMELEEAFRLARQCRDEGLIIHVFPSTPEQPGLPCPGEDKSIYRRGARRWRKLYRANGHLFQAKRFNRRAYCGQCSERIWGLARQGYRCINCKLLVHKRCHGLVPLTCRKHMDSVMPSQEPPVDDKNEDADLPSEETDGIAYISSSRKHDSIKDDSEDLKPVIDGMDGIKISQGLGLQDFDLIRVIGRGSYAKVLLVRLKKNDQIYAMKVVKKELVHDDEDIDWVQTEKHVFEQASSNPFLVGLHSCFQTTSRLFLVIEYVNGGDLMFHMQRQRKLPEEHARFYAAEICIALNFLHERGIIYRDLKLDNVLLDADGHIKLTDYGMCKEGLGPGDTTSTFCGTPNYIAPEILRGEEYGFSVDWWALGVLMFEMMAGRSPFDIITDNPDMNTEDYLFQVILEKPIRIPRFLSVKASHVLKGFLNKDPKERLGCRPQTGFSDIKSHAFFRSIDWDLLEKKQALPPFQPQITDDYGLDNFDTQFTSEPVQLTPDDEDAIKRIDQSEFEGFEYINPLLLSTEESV


Assays:
Assay in all cases: cell-based or functional assay
PKBβ(h) = PKBβ(h) (human, UniProt P31751 1-481, limits assumed)
Chain of PKBβ(h) (P31751 whole entry): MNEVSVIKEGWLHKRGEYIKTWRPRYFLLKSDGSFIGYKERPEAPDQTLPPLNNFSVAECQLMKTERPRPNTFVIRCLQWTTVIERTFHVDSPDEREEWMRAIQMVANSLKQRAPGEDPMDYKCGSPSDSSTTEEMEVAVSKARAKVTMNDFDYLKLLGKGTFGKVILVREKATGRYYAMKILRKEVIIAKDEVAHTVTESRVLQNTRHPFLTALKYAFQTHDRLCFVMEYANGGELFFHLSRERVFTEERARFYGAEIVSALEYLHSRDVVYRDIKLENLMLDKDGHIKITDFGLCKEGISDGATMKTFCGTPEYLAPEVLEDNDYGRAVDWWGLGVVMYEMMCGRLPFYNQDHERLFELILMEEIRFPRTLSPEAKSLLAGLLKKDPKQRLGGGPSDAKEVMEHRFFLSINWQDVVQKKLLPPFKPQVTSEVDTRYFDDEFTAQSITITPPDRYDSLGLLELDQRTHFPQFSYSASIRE

cSRC(h) = cSRC(h) (human, UniProt P12931 1-536)
Ron(h) = target: T1, Ron(h)
PDK1(h) = target: T2, PDK1(h)
PAK4(h) = PAK4(h) (human, UniProt O96013 1-591, limits assumed)
Chain of PAK4(h) (O96013 whole entry): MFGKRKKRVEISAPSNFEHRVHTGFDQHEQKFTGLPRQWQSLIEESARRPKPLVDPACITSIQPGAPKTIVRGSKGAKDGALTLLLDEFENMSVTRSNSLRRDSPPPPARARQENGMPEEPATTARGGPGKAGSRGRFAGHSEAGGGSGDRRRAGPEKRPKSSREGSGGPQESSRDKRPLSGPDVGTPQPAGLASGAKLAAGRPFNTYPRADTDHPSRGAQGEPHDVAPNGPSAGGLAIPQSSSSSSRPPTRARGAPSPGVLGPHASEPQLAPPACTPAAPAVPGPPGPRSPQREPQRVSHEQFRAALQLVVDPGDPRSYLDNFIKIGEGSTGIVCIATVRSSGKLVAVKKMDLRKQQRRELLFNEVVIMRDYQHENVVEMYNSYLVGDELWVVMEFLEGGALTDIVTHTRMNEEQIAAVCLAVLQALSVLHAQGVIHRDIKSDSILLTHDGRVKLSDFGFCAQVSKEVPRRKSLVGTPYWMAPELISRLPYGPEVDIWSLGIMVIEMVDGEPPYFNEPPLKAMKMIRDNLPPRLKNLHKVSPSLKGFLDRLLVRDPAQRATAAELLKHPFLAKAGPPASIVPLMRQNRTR

ALK4(h) = target: T3, ALK4(h)
MSK1(h) = MSK1(h) (human, UniProt O75582 1-802)
Chain of MSK1(h) (O75582 whole entry): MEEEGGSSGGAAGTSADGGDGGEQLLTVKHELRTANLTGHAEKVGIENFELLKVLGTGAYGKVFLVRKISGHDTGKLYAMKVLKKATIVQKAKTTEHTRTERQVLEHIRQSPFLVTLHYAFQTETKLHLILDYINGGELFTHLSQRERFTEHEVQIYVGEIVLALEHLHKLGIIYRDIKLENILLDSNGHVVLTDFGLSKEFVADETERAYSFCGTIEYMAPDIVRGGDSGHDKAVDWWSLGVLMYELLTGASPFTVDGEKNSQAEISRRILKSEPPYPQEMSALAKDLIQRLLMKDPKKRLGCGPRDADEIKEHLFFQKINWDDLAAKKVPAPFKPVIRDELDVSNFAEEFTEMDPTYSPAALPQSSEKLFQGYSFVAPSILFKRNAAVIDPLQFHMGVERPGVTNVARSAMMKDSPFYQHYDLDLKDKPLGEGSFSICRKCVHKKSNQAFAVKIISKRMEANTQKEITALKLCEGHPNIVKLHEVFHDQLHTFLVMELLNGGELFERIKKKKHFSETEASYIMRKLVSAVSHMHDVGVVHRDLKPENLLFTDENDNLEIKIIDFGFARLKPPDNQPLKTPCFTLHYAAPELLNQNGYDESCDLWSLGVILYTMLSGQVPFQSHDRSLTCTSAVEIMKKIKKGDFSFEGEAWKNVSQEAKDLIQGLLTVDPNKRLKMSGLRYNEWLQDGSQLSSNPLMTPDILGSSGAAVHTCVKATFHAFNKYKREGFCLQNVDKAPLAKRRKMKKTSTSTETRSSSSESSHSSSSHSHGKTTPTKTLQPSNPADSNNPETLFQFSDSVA

Fyn(h) = Fyn(h) (human, UniProt P06241 1-537)
Chain of Fyn(h) (P06241 whole entry): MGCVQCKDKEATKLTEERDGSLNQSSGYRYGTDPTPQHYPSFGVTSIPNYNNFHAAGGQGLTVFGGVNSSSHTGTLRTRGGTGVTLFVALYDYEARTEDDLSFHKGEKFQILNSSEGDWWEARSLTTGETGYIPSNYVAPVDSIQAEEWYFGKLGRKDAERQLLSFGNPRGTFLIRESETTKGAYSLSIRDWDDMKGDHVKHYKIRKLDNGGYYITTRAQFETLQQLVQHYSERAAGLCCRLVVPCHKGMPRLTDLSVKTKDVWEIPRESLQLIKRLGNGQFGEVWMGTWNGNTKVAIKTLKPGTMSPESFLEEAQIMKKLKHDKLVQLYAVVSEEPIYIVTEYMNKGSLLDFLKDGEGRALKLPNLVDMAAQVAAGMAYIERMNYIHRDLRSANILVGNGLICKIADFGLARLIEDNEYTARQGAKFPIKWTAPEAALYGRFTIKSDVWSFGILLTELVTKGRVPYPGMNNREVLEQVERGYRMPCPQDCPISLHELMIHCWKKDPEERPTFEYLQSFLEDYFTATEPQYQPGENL

CaMKI(h) = CaMKI(h) (human, UniProt Q14012 1-370)
Chain of CaMKI(h) (Q14012 whole entry): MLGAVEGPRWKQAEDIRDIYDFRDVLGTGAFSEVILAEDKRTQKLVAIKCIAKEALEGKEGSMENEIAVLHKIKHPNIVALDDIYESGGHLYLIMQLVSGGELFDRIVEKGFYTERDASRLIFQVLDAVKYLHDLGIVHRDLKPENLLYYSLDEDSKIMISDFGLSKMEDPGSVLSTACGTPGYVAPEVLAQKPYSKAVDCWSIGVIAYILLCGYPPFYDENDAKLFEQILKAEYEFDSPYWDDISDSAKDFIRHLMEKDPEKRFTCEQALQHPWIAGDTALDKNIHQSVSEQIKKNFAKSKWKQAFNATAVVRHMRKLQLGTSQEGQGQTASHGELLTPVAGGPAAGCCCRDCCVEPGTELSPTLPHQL

HIPK2(h) = HIPK2(h) (human, UniProt Q9H2X6 165-564, limits assumed)
Chain of HIPK2(h) (Q9H2X6 165-564 limits assumed): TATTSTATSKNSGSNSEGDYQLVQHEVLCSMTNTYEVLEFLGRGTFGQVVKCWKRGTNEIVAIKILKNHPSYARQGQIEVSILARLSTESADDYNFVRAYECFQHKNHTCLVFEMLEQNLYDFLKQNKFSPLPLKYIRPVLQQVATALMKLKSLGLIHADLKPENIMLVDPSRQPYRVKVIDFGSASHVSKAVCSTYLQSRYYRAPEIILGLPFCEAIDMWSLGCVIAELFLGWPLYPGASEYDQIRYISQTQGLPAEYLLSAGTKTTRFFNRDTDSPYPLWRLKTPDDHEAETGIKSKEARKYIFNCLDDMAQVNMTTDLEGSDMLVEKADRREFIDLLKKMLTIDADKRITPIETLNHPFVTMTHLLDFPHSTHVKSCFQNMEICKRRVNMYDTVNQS

PKCζ(h) = target: T4, PKCζ(h)
DAPK2(h) = DAPK2(h) (human, UniProt Q9UIK4 1-370, limits assumed)
Chain of DAPK2(h) (Q9UIK4 whole entry): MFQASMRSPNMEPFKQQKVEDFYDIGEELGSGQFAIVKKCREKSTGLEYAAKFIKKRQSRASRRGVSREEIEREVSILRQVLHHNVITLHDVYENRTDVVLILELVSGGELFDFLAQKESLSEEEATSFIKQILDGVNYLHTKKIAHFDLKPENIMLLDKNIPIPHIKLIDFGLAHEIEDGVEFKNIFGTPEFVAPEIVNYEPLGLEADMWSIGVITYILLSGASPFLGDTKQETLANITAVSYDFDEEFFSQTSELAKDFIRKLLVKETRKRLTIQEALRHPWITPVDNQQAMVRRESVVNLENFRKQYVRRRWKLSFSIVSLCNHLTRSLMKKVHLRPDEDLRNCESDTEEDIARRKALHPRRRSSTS

LOK(h) = LOK(h) (human, UniProt O94804 1-348, limits assumed)
Chain of LOK(h) (O94804 1-348 limits assumed): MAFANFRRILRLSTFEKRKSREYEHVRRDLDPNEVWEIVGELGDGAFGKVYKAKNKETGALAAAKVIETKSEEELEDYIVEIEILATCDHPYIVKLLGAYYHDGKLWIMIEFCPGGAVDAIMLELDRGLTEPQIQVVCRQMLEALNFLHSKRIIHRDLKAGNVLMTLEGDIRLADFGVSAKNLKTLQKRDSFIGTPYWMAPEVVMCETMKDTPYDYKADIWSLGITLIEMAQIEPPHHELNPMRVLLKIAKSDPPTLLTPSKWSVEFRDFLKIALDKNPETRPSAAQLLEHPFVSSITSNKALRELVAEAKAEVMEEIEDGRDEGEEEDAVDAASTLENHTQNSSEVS

Rsk2(h) = Rsk2(h) (human, UniProt P51812 1-740)
KDR(h) = KDR(h) (human, UniProt P35968 790-1356, limits assumed)
Chain of KDR(h) (P35968 790-1356 limits assumed): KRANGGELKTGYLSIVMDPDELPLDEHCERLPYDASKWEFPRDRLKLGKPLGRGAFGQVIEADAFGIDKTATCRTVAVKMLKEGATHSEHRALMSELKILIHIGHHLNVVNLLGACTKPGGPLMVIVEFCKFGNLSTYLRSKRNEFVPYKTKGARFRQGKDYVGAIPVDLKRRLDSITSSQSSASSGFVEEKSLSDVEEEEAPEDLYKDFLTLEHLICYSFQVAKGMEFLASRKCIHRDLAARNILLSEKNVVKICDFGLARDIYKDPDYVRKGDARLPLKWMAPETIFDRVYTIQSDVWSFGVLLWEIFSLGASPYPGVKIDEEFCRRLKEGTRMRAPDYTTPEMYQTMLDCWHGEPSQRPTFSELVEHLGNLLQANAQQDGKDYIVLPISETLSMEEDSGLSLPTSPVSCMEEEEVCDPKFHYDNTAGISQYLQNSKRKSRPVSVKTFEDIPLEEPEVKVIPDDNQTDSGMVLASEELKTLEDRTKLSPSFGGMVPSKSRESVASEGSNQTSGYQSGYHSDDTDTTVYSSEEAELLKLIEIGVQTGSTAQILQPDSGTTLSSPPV

SRPK1(h) = SRPK1(h) (human, UniProt Q96SB4 1-655)
FGFR1(V561M)(h) = FGFR1(V561M)(h) (human, UniProt P11362 456-765, limits assumed)
Chain of FGFR1(V561M)(h) (P11362 456-765 V561M limits assumed): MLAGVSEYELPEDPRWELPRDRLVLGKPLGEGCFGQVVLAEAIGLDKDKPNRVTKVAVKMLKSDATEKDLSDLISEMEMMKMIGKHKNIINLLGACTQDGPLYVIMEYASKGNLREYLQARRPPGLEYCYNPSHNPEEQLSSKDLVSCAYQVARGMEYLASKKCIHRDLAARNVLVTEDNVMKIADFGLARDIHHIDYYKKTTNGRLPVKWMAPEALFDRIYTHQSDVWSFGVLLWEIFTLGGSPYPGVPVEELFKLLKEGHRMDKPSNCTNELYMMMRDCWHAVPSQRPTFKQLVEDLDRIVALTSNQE

Binder	% activity, 100 µM (PKBβ(h)) [%]	% activity, 100 µM (cSRC(h)) [%]	% activity, 100 µM (Ron(h)) [%]	% activity, 100 µM (PDK1(h)) [%]	% activity, 100 µM (PAK4(h)) [%]	% activity, 100 µM (ALK4(h)) [%]	% activity, 100 µM (MSK1(h)) [%]	% activity, 100 µM (Fyn(h)) [%]	% activity, 100 µM (CaMKI(h)) [%]	% activity, 100 µM (HIPK2(h)) [%]	% activity, 100 µM (PKCζ(h)) [%]	% activity, 100 µM (DAPK2(h)) [%]	% activity, 100 µM (LOK(h)) [%]	% activity, 100 µM (Rsk2(h)) [%]	% activity, 100 µM (KDR(h)) [%]	% activity, 100 µM (SRPK1(h)) [%]	% activity, 100 µM (FGFR1(V561M)(h)) [%]
FAKLAARLYRKALARQLGVAA [MMI-0300]	84	26	93	135	94	140	32	74	1	73	81	32	37	51	101	90	74
KAFAKLAARLYRKALARQLGVAA [MMI-0400]	98	14	79	159	89	130	28	54	0	90	75	16	18	38	94	96	74
